Measured values reported in patent publication US20220193251A1, “CD30 TARGETING ANTIBODY DRUG CONJUGATES AND USES THEREOF” (Ludwig-Maximilians-Universitaet Muenchen, priority 2020, published 2022).

Tests used:
[1] = target: cathepsin B (Homo sapiens, UniProt P07858); assay: Digestion of vc payloads with protease cathepsin B, RP-HPLC; type: biochemical; conditions: cathepsin B 1:1000 for each vc moiety
Description: Prior to the conjugation with the antibody, payloads 2 and 3 have been analyzed for their susceptibility to cleavage by the protease cathepsin B (FIGS. 5A-5C).
FIGS. 5A-5C show in FIG. 5A an RP-HPLC analysis of the valine-citrulline (vc) containing payload 2 during digestion reaction with the protease cathepsin B (1:1000 for each vc moiety). Prior to analysis the reaction was stopped with E-64. The chromatogram after a reaction time of 150 min was recorded at 220 nm. […] During the reaction of payload 3 with cathepsin B an intermediate is formed (grey, triangle) which contains one MMAE moiety.

[2] = Storage of ADCs in mouse-plasma for 7 days at 37° C.; type: in vitro ADME; conditions: for DARav after plasma incubation n = 2 / Payload lost: mouse-plasma, 7 days at 37° C.
[3] = Repeated dose toxicity and toxicokinetic study in cynomolgus monkey; type: in vivo
Description: Clinical condition (incl. bodyweight, food consumption & clinical observations), clinical pathology and immunophenotyping (T, B and NK cells) was evaluated throughout the study, with frequent sampling for TK and anti-drug antibody determination. All animals were subject to full necropsy with detailed macroscopic observations.
Bodyweight is depicted in kilogram, lymphocytes in billion per liter, neutrophiles in billion per liter and white blood cells in billion per liter.

[4] = Repeated dose toxicity and toxicokinetics study in rats; type: in vivo, Sprague Dawley rats; conditions: for Glucose level: one ADC compared to the other
Description: Experiments were performed in accordance with animal welfare law and approved by local authorities. […] Clinical observations, body weight and food consumption were determined daily throughout the study. Pharmacokinetic samples were obtained prior to each dose, 15 minutes post each dose and at necropsy from each animal. All animals were necropsied, with organs weighed and retained in fixative. Clinical pathology (hematology, clinical chemistry and coagulation end-points) samples were also taken at necropsy.
Clinical observations, body weight and food consumption were determined daily throughout the study. Pharmacokinetic samples were obtained prior to each dose, 15 minutes post each dose and at necropsy from each animal. All animals were necropsied, with organs weighed and retained in fixative. Clinical pathology (hematology, clinical chemistry, and coagulation endpoints) samples were also taken at necropsy.
As reference, rats were dosed with a control (vehicle) (data not shown).

[5] = cynomolgus monkey, cited from earlier work
[6] = cynomolgus monkey, 6, 12 and 15 mg/kg
[7] = cynomolgus monkey, 6, 12 and 15 mg/kg repeated dose
[8] = rat, 10 mg/kg weekly, compared to the Brentuximab Tub-tag ADC

Compound | susceptibility to cleavage by cathepsin B, release of free MMAE [1] | DAR before plasma incubation [2] | DARav after plasma incubation n = 2 [2] | Payload lost [2] [%] | Hematocrit ([4]; rat, 10 mg/kg weekly) | Hemoglobin levels ([4]; rat, 10 mg/kg weekly) | MMAE driven testes changes ([4]; rat, 10 mg/kg weekly) | Red blood cell count ([4]; rat, 10 mg/kg weekly) | Reticulocytes count ([4]; rat, 10 mg/kg weekly) | Glucose level ([4]; rat, 10 mg/kg weekly) | also measured
CC[C@H](C)[C@H]([C@H](CC(=O)N1CCC[C@@H]1[C@@H](OC)[C@H](C)C(=O)N[C@@H](C)[C@H](O)c1ccccc1)OC)N(C)C(=O)[C@H](NC(O)[C@@H](C(C)C)N(C)C(=O)OCc1ccc(NC(=O)[C@@H](CCCNC(N)=O)NC(=O)[C@H](NC(=O)CON)C(C)C)cc1)C(C)C (stereo partly shown) [payload 2, HA-VC-PAB-MMAE] | cleaved by cathepsin B |  |  |  |  |  |  |  |  |  | 
Bren. HC-2: Brentuximab with Tub-tag on heavy chains (SEQ ID NO: 2/12), 3-formyl-L-tyrosine, oxime-linked Payload 2 (vc-PAB-MMAE), DAR 2 |  | 2 | 1.8 | 10 |  |  |  |  |  |  | 
Bren. LC-2: Brentuximab with Tub-tag on light chains (SEQ ID NO: 11/1), 3-formyl-L-tyrosine, oxime-linked Payload 2 (vc-PAB-MMAE), DAR 2 |  | 2 | 1.8 | 10 | no marked effect | no marked effect | delayed in onset | no marked effect | no effect | lower glucose levels | lymphocytes concentration and white blood cells concentration [3, 6]: No significant changes; reduction in neutrophiles in comparison to Brentuximab vedotin (3 mg/kg) [3, 6]: does not cause a higher amount of reduction in neutrophiles; clinical tolerability [3, 7]: clinically well tolerated; mortality, macroscopic and microscopic findings [3, 7]: no mortality and no macroscopic or sever microscopic findings; reductions in red blood cells, hemoglobin and neutrophils ([3]; cynomolgus monkey, at 12 & 15 mg/kg): relatively consistent to those observed with Adcetris at 3 mg/kg; overall safety profile in the rat ([4]; 10 mg/kg weekly): better safety profile compared to Brentuximab vedotin; serum concentrations after repeated doses ([4]; rat, 10 mg/kg i.v. at day 1, 8, 15 and 22): reasonable levels of serum concentrations; impact on red blood cell populations ([4]; rat, 10 mg/kg weekly): no impact on red blood cell populations
Brentuximab vedotin: approved CD30 ADC: chimeric IgG1 brentuximab, Cathepsin B cleavable Valin-Citrulline linker, Monomethyl-Auristatin E; maleimide-linked, DARav 4 |  | 4.02 | 1.53 | 62 | reduces hematocrit (mainly in males) | reduces hemoglobin levels (mainly in males) | testes changes were observed | marked impact | marked impact | greater level of glucose | APTT [4, 8]: lower APTT values; Eosinophils counts [4, 8]: lower eosinophils counts; Testis weight [4, 8]: lower testis weight; Thymus weight [4, 8]: lower thymus weight; tolerability at 6 mg/kg ([5]; 6 mg/kg): poorly tolerated; MTD [5]: 3 mg/kg
HA-(VC-PAB-MMAE)2 [payload 3] | cleaved by cathepsin B |  |  |  |  |  |  |  |  |  | 
